The target of assay [1] is CNX-mcherry fluorescent protein expressed in Huh7 cells. Nature of the assay: immunofluorescence, Huh7 CNX-mcherry cells minus plain Huh7 cells, Alexa-coupled secondary.
Assay [2] shares this target. Kind of assay: immunofluorescence, Huh7 CNX-mcherry cells minus plain Huh7 cells, anti-human Alexa 647.
For assay [3], the target named is CNX-his antigen (Genscript) (human) (UniProt P27824). Nature of the assay: ELISA with serial dilutions of the antibody on coated His-tagged human CNX. In general terms: ELISA stands for enzyme-linked immunosorbent assay.
Assay [4] deals with Recombinant human CANX protein fused with the Fc region of human IgG1 at the C-terminus (HuCANX_hFc) (human) (UniProt P27824). Kind of assay: ELISA, IgG1 coated 2 ug/ml, biotinylated antigen titrated (EC50 is of the antigen), streptavidin-HRP; curve is flat, value lies beyond the range shown.
Chain of Recombinant human CANX protein fused with the Fc region of human IgG1 at the C-terminus (HuCANX_hFc) (human) (P27824 21-481 limits assumed): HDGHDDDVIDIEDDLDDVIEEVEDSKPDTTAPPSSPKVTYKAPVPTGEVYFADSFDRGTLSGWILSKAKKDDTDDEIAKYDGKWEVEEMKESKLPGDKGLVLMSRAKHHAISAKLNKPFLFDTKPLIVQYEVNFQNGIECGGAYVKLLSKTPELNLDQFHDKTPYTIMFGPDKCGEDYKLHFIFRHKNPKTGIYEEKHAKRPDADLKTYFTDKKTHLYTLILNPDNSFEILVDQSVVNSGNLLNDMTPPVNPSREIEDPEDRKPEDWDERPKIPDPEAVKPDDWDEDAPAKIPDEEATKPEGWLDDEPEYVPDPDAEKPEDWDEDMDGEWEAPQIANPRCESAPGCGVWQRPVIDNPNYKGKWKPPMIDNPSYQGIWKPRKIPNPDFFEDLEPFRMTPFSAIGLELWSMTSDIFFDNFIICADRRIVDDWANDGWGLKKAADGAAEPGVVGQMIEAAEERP

Chain of CNX-mcherry fluorescent protein expressed in Huh7 cells (P27824 21-592): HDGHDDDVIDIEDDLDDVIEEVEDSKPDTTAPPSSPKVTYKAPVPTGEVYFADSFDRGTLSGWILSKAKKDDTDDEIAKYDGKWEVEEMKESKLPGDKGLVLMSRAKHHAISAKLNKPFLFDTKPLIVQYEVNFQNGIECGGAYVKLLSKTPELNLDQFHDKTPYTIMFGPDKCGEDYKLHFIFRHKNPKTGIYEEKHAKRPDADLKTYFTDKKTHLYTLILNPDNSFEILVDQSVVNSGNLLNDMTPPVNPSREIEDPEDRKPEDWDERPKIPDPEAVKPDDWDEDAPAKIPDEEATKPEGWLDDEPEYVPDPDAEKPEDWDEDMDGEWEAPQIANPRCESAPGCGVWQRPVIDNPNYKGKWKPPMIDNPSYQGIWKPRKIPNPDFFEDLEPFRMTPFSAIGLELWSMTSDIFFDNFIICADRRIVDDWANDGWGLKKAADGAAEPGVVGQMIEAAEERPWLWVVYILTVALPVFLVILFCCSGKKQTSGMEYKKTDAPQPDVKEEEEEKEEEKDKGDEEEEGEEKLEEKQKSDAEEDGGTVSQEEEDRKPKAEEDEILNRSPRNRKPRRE
Chain of CNX-his antigen (Genscript) (human) (P27824 21-481 limits assumed): as the sequence (P27824 21-481 limits assumed) above

In the case of CNX antibody ab22595 (Abcam), the Intensity (CNX+ cells - CNX -ve) in assay [1] is 3630.

Turning to negative control human IgG (antibody), the Intensity (CNX+ cells - CNX -ve) in assay [2] was 107.

Substance CNX ab10286 (Abcam) (antibody) displayed a half-maximal effective concentration (EC50 (read off the curve)) in assay [3] of 0.2 mg/L.

Turning to Neg Control (antibody), the EC50 in assay [4] came out at 0.147 µM.

As usually defined, the EC50 (read off the curve) is the concentration that produces a half-maximal response. A low value points to a more potent agent. Usually EC50 stands for the concentration at which the effect is half-maximal.

These data come from US20260250378A1.
